Where “and” joins values, the source holds several entries; their conditions need not be identical. Identical values can stand only once. Like-named read-outs stand apart in the source and are kept apart here.

Common to all, as to assay: SEC-SAXS
One data set has as its system P00924. As to conditions: other: SEC-SAXS.
The target of data set [1] is enolase from baker's yeast (baker's yeast) (UniProt P00924).
Data set [2] has the same target. The source holds these as a separate data set.
For data set [3], the target named is L-lactate dehydrogenase from hog muscle (Sus scrofa) (UniProt P00339).
The target is the same in data set [4]. The source holds these as a separate data set.

enolase from baker's yeast, sequence (P00924 whole entry): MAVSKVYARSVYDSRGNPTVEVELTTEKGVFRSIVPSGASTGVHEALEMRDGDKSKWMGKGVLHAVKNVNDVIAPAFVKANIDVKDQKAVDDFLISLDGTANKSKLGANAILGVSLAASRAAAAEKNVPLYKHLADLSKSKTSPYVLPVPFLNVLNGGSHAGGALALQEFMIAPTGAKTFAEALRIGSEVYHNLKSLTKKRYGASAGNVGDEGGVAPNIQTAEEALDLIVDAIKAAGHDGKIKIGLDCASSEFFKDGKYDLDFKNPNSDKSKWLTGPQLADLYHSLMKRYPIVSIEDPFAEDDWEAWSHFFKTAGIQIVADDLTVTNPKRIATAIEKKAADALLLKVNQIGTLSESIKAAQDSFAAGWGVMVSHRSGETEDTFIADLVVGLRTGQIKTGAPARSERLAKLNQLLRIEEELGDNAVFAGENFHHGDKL

enolase from baker's yeast: the “share of monomer and dimer in the main peak body at 100 MPa” value with P00924 was “∼50% monomer/dimer mixture”.

Take “enolase from baker's yeast (from UniProt P00924 1-437) (enzyme)”: the stoichiometry N in data set [1] and in data set [2] was 2 each time.

Turning to “L-lactate dehydrogenase from hog muscle (from UniProt P00339 1-332) (enzyme)”, the stoichiometry N was 4 in data set [3]; 4 and 2 in data set [4].
